Measurements as given in the supplement of paper PMC9876800.

Tested on: peptide library, one residue held at a place counted from the S/T acceptor
Assay: relative phosphorylation of the sub-library (ratio to the mean residue at this position); higher = residue favoured
Settings: human
Summary of the method: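 Relative sub-library phosphorylation, a ratio to the mean residue at that position, was obtained by phosphorimaging and densitometry of spots on streptavidin membranes. Before capture, purified recombinant kinases were incubated for 90 min under kinase-specific conditions with 50 μM biotinylated degenerate peptide sub-libraries and 50 μM ATP spiked with γ-32P-ATP. Each sub-library fixed one residue at one position around a central Ser/Thr.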

Sequence of PBK, construct: Full length (Q96KB5 whole entry, looked up): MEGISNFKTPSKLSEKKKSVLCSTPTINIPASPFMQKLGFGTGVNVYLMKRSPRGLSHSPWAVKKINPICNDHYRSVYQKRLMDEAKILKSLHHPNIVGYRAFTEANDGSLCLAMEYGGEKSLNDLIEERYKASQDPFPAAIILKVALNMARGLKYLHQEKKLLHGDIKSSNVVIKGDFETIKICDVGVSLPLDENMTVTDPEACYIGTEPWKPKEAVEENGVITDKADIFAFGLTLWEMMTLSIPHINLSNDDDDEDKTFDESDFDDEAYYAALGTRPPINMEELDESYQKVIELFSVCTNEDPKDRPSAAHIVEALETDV

“PBK, construct: Full length (from UniProt Q96KB5)” gave a relative phosphorylation (A fixed, at +1) of 1.09, a relative phosphorylation (A fixed, at +2) of 1.14 and a relative phosphorylation (A fixed, at +3) of 1.03. It also gave a relative phosphorylation (A fixed, at +4) of 1.16, a relative phosphorylation (A fixed, at -1) of 1.08 and a relative phosphorylation (A fixed, at -2) of 0.848. For the same substance, the relative phosphorylation (A fixed, at -3) was 1, the relative phosphorylation (A fixed, at -4) was 1.04 and the relative phosphorylation (A fixed, at -5) was 1.29. For the same substance, the relative phosphorylation (D fixed, at +1) was 0.572, the relative phosphorylation (D fixed, at +2) was 0.524 and the relative phosphorylation (D fixed, at +3) was 0.634. For the same substance, the relative phosphorylation (D fixed, at +4) was 0.644, the relative phosphorylation (D fixed, at -1) was 0.384 and the relative phosphorylation (D fixed, at -2) was 0.427. It also gave a relative phosphorylation (D fixed, at -3) of 0.364, a relative phosphorylation (D fixed, at -4) of 0.545 and a relative phosphorylation (D fixed, at -5) of 0.576. For the same substance, the relative phosphorylation (E fixed, at +1) was 0.364, the relative phosphorylation (E fixed, at +2) was 0.523 and the relative phosphorylation (E fixed, at +3) was 0.604. The relative phosphorylation (E fixed, at +4) was 0.608, the relative phosphorylation (E fixed, at -1) was 0.397 and the relative phosphorylation (E fixed, at -2) was 0.382. It also gave a relative phosphorylation (E fixed, at -3) of 0.37, a relative phosphorylation (E fixed, at -4) of 0.534 and a relative phosphorylation (E fixed, at -5) of 0.491. The relative phosphorylation (F fixed, at +1) was 0.394, the relative phosphorylation (F fixed, at +2) was 0.849 and the relative phosphorylation (F fixed, at +3) was 0.728. The relative phosphorylation (F fixed, at +4) was 0.848, the relative phosphorylation (F fixed, at -1) was 0.814 and the relative phosphorylation (F fixed, at -2) was 1.47. For the same substance, the relative phosphorylation (F fixed, at -3) was 1.57, the relative phosphorylation (F fixed, at -4) was 1.07 and the relative phosphorylation (F fixed, at -5) was 0.756. For the same substance, the relative phosphorylation (G fixed, at +1) was 7.99, the relative phosphorylation (G fixed, at +2) was 1.17 and the relative phosphorylation (G fixed, at +3) was 1.69. For the same substance, the relative phosphorylation (G fixed, at +4) was 1.23, the relative phosphorylation (G fixed, at -1) was 1.25 and the relative phosphorylation (G fixed, at -2) was 0.76. For the same substance, the relative phosphorylation (G fixed, at -3) was 0.673, the relative phosphorylation (G fixed, at -4) was 1.11 and the relative phosphorylation (G fixed, at -5) was 1. For the same substance, the relative phosphorylation (H fixed, at +1) was 0.527, the relative phosphorylation (H fixed, at +2) was 1.11 and the relative phosphorylation (H fixed, at +3) was 1.2. It also gave a relative phosphorylation (H fixed, at +4) of 0.777, a relative phosphorylation (H fixed, at -1) of 1.48 and a relative phosphorylation (H fixed, at -2) of 1.06. It also gave a relative phosphorylation (H fixed, at -3) of 0.965, a relative phosphorylation (H fixed, at -4) of 1.16 and a relative phosphorylation (H fixed, at -5) of 1.41. It also gave a relative phosphorylation (I fixed, at +1) of 0.386, a relative phosphorylation (I fixed, at +2) of 0.928 and a relative phosphorylation (I fixed, at +3) of 0.641. The relative phosphorylation (I fixed, at +4) was 0.976, the relative phosphorylation (I fixed, at -1) was 0.394 and the relative phosphorylation (I fixed, at -2) was 1.07. It also gave a relative phosphorylation (I fixed, at -3) of 0.587, a relative phosphorylation (I fixed, at -4) of 0.563 and a relative phosphorylation (I fixed, at -5) of 0.733. The relative phosphorylation (K fixed, at +1) was 0.475, the relative phosphorylation (K fixed, at +2) was 0.775 and the relative phosphorylation (K fixed, at +3) was 1.25. For the same substance, the relative phosphorylation (K fixed, at +4) was 1.2, the relative phosphorylation (K fixed, at -1) was 1.37 and the relative phosphorylation (K fixed, at -2) was 1.7. For the same substance, the relative phosphorylation (K fixed, at -3) was 1.49, the relative phosphorylation (K fixed, at -4) was 1.23 and the relative phosphorylation (K fixed, at -5) was 1.38. It also gave a relative phosphorylation (L fixed, at +1) of 0.52, a relative phosphorylation (L fixed, at +2) of 1.04 and a relative phosphorylation (L fixed, at +3) of 0.907. For the same substance, the relative phosphorylation (L fixed, at +4) was 1.05, the relative phosphorylation (L fixed, at -1) was 0.719 and the relative phosphorylation (L fixed, at -2) was 1.07. For the same substance, the relative phosphorylation (L fixed, at -3) was 0.691, the relative phosphorylation (L fixed, at -4) was 0.669 and the relative phosphorylation (L fixed, at -5) was 0.723. For the same substance, the relative phosphorylation (M fixed, at +1) was 0.93, the relative phosphorylation (M fixed, at +2) was 1.29 and the relative phosphorylation (M fixed, at +3) was 0.717. For the same substance, the relative phosphorylation (M fixed, at +4) was 0.98, the relative phosphorylation (M fixed, at -1) was 1.06 and the relative phosphorylation (M fixed, at -2) was 1.09. The relative phosphorylation (M fixed, at -3) was 0.845, the relative phosphorylation (M fixed, at -4) was 0.826 and the relative phosphorylation (M fixed, at -5) was 0.833. It also gave a relative phosphorylation (N fixed, at +1) of 0.658, a relative phosphorylation (N fixed, at +2) of 0.913 and a relative phosphorylation (N fixed, at +3) of 1.05. For the same substance, the relative phosphorylation (N fixed, at +4) was 0.855, the relative phosphorylation (N fixed, at -1) was 1.09 and the relative phosphorylation (N fixed, at -2) was 0.678. It also gave a relative phosphorylation (N fixed, at -3) of 0.625, a relative phosphorylation (N fixed, at -4) of 0.991 and a relative phosphorylation (N fixed, at -5) of 0.981. It also gave a relative phosphorylation (P fixed, at +1) of 0.592, a relative phosphorylation (P fixed, at +2) of 1.38 and a relative phosphorylation (P fixed, at +3) of 1.69. For the same substance, the relative phosphorylation (P fixed, at +4) was 1.56, the relative phosphorylation (P fixed, at -1) was 1.06 and the relative phosphorylation (P fixed, at -2) was 0.878. For the same substance, the relative phosphorylation (P fixed, at -3) was 0.872, the relative phosphorylation (P fixed, at -4) was 1.16 and the relative phosphorylation (P fixed, at -5) was 0.914. It also gave a relative phosphorylation (Q fixed, at +1) of 0.53, a relative phosphorylation (Q fixed, at +2) of 0.802 and a relative phosphorylation (Q fixed, at +3) of 0.954. It also gave a relative phosphorylation (Q fixed, at +4) of 0.845, a relative phosphorylation (Q fixed, at -1) of 1.55 and a relative phosphorylation (Q fixed, at -2) of 0.685. The relative phosphorylation (Q fixed, at -3) was 0.707, the relative phosphorylation (Q fixed, at -4) was 0.856 and the relative phosphorylation (Q fixed, at -5) was 0.77. It also gave a relative phosphorylation (R fixed, at +1) of 0.535, a relative phosphorylation (R fixed, at +2) of 0.829 and a relative phosphorylation (R fixed, at +3) of 1.24. It also gave a relative phosphorylation (R fixed, at +4) of 1.05, a relative phosphorylation (R fixed, at -1) of 1.81 and a relative phosphorylation (R fixed, at -2) of 1.23. It also gave a relative phosphorylation (R fixed, at -3) of 1.98, a relative phosphorylation (R fixed, at -4) of 1.56 and a relative phosphorylation (R fixed, at -5) of 1.99. It also gave a relative phosphorylation (V fixed, at +1) of 0.476, a relative phosphorylation (V fixed, at +2) of 1.37 and a relative phosphorylation (V fixed, at +3) of 0.956. It also gave a relative phosphorylation (V fixed, at +4) of 0.983, a relative phosphorylation (V fixed, at -1) of 0.517 and a relative phosphorylation (V fixed, at -2) of 0.932. The relative phosphorylation (V fixed, at -3) was 0.709, the relative phosphorylation (V fixed, at -4) was 0.642 and the relative phosphorylation (V fixed, at -5) was 0.777. For the same substance, the relative phosphorylation (W fixed, at +1) was 0.552, the relative phosphorylation (W fixed, at +2) was 1.45 and the relative phosphorylation (W fixed, at +3) was 0.816. For the same substance, the relative phosphorylation (W fixed, at +4) was 1.17, the relative phosphorylation (W fixed, at -1) was 0.76 and the relative phosphorylation (W fixed, at -2) was 1.57. It also gave a relative phosphorylation (W fixed, at -3) of 1.89, a relative phosphorylation (W fixed, at -4) of 2.04 and a relative phosphorylation (W fixed, at -5) of 1.55. For the same substance, the relative phosphorylation (Y fixed, at +1) was 0.406, the relative phosphorylation (Y fixed, at +2) was 0.891 and the relative phosphorylation (Y fixed, at +3) was 0.9. It also gave a relative phosphorylation (Y fixed, at +4) of 1.07, a relative phosphorylation (Y fixed, at -1) of 1.27 and a relative phosphorylation (Y fixed, at -2) of 1.14. It also gave a relative phosphorylation (Y fixed, at -3) of 1.66, a relative phosphorylation (Y fixed, at -4) of 1.01 and a relative phosphorylation (Y fixed, at -5) of 0.812. For the same substance, the relative phosphorylation (pThr fixed, at +1) was 0.348, the relative phosphorylation (pThr fixed, at +2) was 0.618 and the relative phosphorylation (pThr fixed, at +3) was 0.721. For the same substance, the relative phosphorylation (pThr fixed, at +4) was 0.507, the relative phosphorylation (pThr fixed, at -1) was 0.317 and the relative phosphorylation (pThr fixed, at -2) was 0.586. The relative phosphorylation (pThr fixed, at -3) was 0.638, the relative phosphorylation (pThr fixed, at -4) was 0.803 and the relative phosphorylation (pThr fixed, at -5) was 0.703. The relative phosphorylation (pTyr fixed, at +1) was 0.287, the relative phosphorylation (pTyr fixed, at +2) was 0.497 and the relative phosphorylation (pTyr fixed, at +3) was 0.574. For the same substance, the relative phosphorylation (pTyr fixed, at +4) was 0.529, the relative phosphorylation (pTyr fixed, at -1) was 0.537 and the relative phosphorylation (pTyr fixed, at -2) was 0.508. It also gave a relative phosphorylation (pTyr fixed, at -3) of 0.554, a relative phosphorylation (pTyr fixed, at -4) of 0.703 and a relative phosphorylation (pTyr fixed, at -5) of 0.576.
